# Experimental data published in patent US20100160617.
# Legend:
# [1] = target: HCV NS5B RNA-dependent RNA polymerase (Hepatitis C virus) (UniProt P26663); experiment: SPR; conditions: 2'-F on all C and U
# [2] = target: HCV NS5B RNA-dependent RNA polymerase (Hepatitis C virus) (UniProt P26663); experiment: EMSA; conditions: 2'-F on all C and U; apparent Kd; 4% nondenaturing gel
# Sequence of HCV NS5B RNA-dependent RNA polymerase (Hepatitis C virus) (P26663 2420-3010): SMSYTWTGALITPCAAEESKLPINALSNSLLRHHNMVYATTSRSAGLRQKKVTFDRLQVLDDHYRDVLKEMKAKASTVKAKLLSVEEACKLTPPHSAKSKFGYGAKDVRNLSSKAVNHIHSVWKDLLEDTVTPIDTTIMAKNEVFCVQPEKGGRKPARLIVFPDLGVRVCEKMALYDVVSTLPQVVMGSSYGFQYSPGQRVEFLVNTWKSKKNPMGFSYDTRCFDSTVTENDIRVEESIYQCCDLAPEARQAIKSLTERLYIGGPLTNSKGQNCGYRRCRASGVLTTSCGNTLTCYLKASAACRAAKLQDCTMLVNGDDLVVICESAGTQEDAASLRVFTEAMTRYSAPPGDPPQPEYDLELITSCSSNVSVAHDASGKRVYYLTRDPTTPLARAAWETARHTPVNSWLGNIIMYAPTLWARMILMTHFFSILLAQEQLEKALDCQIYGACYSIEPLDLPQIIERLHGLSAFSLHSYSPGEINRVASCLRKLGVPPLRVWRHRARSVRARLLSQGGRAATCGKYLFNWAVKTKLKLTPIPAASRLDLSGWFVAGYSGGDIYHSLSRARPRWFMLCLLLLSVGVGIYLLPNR
sequence,measurement,setting,value
GCUGGGCCUUGAACGAUUGGUAGUAGAAUAUCGUCAGUGAACGGC [RNA aptamer #9-t1],Kd,[1],8.4 nM
AACGAUUGGUAGUAGAAUAUCGU [RNA aptamer #9-t3],Kd,[1]; 5' end of the transcript may carry extra G from T7 primer,40.4 nM
GUUGAACGAUUGGUAGUAGAAUAUCGUCAG [RNA aptamer #9-t2],Kd,[1]; listing SEQ 4 lacks the 5' G printed in text,2.6 nM
GGGAGAGCGGAAGCGUGCUGGGCCGACAGGGUAGCUUACAGCUGCAUGAUCGCUAGAGGGCGAACAUAACCCAGAGGUCGAUGGAUCCCCCC [RNA aptamer #24],Kd,[2],5 nM
GGGAGAGCGGAAGCGUGCUGGGCCUUGAACGAUUGGUAGUAGAAUAUCGUCAGUGAACGGCAGUCAUAACCCAGAGGUCGAUGGAUCCU [RNA aptamer #9],Kd,[2],18 nM
